39 sequences from the supplement of paper PMC7877785 can be followed below.

A short description of this series: self-splicing fitness, log relative to wild type (ln ratio); higher = more splicing; Tetrahymena group I intron in knt gene, E. coli kanamycin selection, DiMSum; sequences stand for … in CUCUCU…GGAGGGAAAAGUUAUCAGGCAUGCACCUGGUAGCUAGUCUUUAAACCAAUAGAUUGCAUCGGUUUAAAAGGCAAGACCGUCAAAUUGCGGGAAAGGGGUCAACAGCCGUUCAGUACCAAGUCUCAGGGGAAACUUUGAGAUGGCCUUGCAAAGGGUAUGGUAAUAAGCUGACGGACAUGGUCCUAACCACGCAGCCAAGUCCUAAGUCAACAGAUCUUCUGUUGAUAUGGAUGCAGUUCACAGACUAAAUGUCGGUCGGGGAAGAUGUAUUCUUCUCAUAAGAUAUAGUCGGACCUCUCCUUAAUGGGAGCUAGCGGAUGAAGUGAUGCAACACUGGAGCCGCUGGGAACUAAUUUGUAUGCGAAAGUAUAUUGAUUAGUUUUGGAGUACUCGUGGUCG
The method in brief:
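Fitness was computed with DiMSum as the error-weighted combination of replicate fold changes, kanamycin versus none, each normalised to wild type. The library randomised all eight intron nucleotides of the P1ex region, with the intron placed in the knt kanamycin-resistance gene on pET-22b(+) in E. coli BL21(DE3). Six replicate transformations were grown overnight at 37°C or 30°C on LB agar with or without 25 μg/mL kanamycin, plus 100 μg/mL carbenicillin, 50 μM IPTG and 0.2% rhamnose. Pooled colonies were amplicon-sequenced on an Illumina HiSeq 2500.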

± gives the uncertainty stated by the source.

AAGUAGCAAUAUUACGACAU: the “self-splicing fitness (ln)” value (30 °C) is 0.0523 ± 0.012 and the “self-splicing fitness (ln)” value (37 °C) is -0.0429 ± 0.033.
In the same order, the values of CCUCAGCAAUAUUACGAGCC are -0.962 ± 0.25 and -0.207 ± 0.41.
For the sequence GAAGAGCAAUAUUACGUCCA, the “self-splicing fitness (ln)” value (30 °C) is -3.13 ± 0.4.
CUGGAGCAAUAUUACGUAUA: the “self-splicing fitness (ln)” value runs as follows: (30 °C) -3.12 ± 0.36; (37 °C) -2.48 ± 0.3.
For GCCCAGCAAUAUUACGUUUC the same measures were -1.36 ± 0.078 and -1.37 ± 0.1.
As for GCCUAGCAAUAUUACGAUCU, the “self-splicing fitness (ln)” value was -2.18 ± 0.079 (30 °C) and -0.334 ± 0.071 (37 °C).
In the same order, the values of AAGCAGCAAUAUUACGUCCC are -1.01 ± 0.15 and -0.803 ± 0.2.
CGUUAGCAAUAUUACGACUG: the “self-splicing fitness (ln)” value reads like this: (30 °C) -0.369 ± 0.12; (37 °C) 0.327 ± 0.14.
For the sequence GAUGAGCAAUAUUACGAUCU, the “self-splicing fitness (ln)” value (37 °C) was -1.86 ± 0.29.
For the sequence AACUAGCAAUAUUACGUUCC, the “self-splicing fitness (ln)” value is -2.63 ± 0.22 (30 °C) and -1.93 ± 0.24 (37 °C).
With AGCCAGCAAUAUUACGUAGG, the “self-splicing fitness (ln)” value by setting is: (30 °C) -3.77 ± 0.2; (37 °C) -3.33 ± 0.24.
For AGGAAGCAAUAUUACGCAUG, the “self-splicing fitness (ln)” value is -3.2 ± 0.16 (30 °C) and -1.31 ± 0.12 (37 °C).
In the same order, the values of GUCGAGCAAUAUUACGUCCA are -2.21 ± 0.22 and -2.53 ± 0.26.
For AGCAAGCAAUAUUACGGCAC the same measures were -0.889 ± 0.08 and -0.371 ± 0.11.
For ACUAAGCAAUAUUACGUUUG the same measures were -3.62 ± 0.18 and -2.22 ± 0.17.
Turning to GGCGAGCAAUAUUACGACCC, the “self-splicing fitness (ln)” value by setting is: (30 °C) -3.18 ± 0.44; (37 °C) -1.25 ± 0.5.
As to ACCAAGCAAUAUUACGUACU, the “self-splicing fitness (ln)” value is, setting by setting: (30 °C) -0.582 ± 0.049; (37 °C) -0.135 ± 0.071.
In the same order, the values of GAGAAGCAAUAUUACGAACA are -1.05 ± 0.17 and -1.57 ± 0.2.
With AGGUAGCAAUAUUACGAGCU, the “self-splicing fitness (ln)” value is -0.0909 ± 0.015 (30 °C) and -0.123 ± 0.034 (37 °C).
For CCUCAGCAAUAUUACGGGCG the same measures were -1.59 ± 0.069 and -0.619 ± 0.074.
With AAAGAGCAAUAUUACGAACC, the “self-splicing fitness (ln)” value (37 °C) was -1.39 ± 0.46.
On to UCUCAGCAAUAUUACGAUAG, for which the “self-splicing fitness (ln)” value (30 °C) is -2.43 ± 0.15 and the “self-splicing fitness (ln)” value (37 °C) is -0.737 ± 0.15.
For UAUAAGCAAUAUUACGUACA, the “self-splicing fitness (ln)” value by setting is: (30 °C) -0.793 ± 0.12; (37 °C) -0.427 ± 0.14.
Turning to GAUUAGCAAUAUUACGCAUC, the “self-splicing fitness (ln)” value (30 °C) is -2.32 ± 0.25.
As for GCCUAGCAAUAUUACGUGAU, the “self-splicing fitness (ln)” value by setting is: (30 °C) -0.0579 ± 0.072; (37 °C) 0.159 ± 0.079.
In the same order, the values of UGCUAGCAAUAUUACGUCAU are -2.72 ± 0.24 and -2.61 ± 0.22.
For GGCUAGCAAUAUUACGUAGU the same measures were -3.29 ± 0.17 and -2.04 ± 0.2.
For GACCAGCAAUAUUACGAAGC the same measures were -0.849 ± 0.062 and -0.511 ± 0.093.
As to GCUAAGCAAUAUUACGCUCU, the “self-splicing fitness (ln)” value runs as follows: (30 °C) -1.11 ± 0.13; (37 °C) 0.486 ± 0.15.
Take GACCAGCAAUAUUACGUCUA: the “self-splicing fitness (ln)” value by setting is: (30 °C) -1.44 ± 0.085; (37 °C) -0.724 ± 0.081.
With CUGGAGCAAUAUUACGAUAC, the “self-splicing fitness (ln)” value (30 °C) was -2.26 ± 0.22.
Consider CAGCAGCAAUAUUACGGACU, for which the “self-splicing fitness (ln)” value reads like this: (30 °C) -2.43 ± 0.21; (37 °C) -1.41 ± 0.13.
For CUGUAGCAAUAUUACGGUGA the same measures were -3.22 ± 0.22 and -2.28 ± 0.24.
In the same order, the values of AAAUAGCAAUAUUACGUCCA are -0.829 ± 0.084 and -0.327 ± 0.1.
For UGAGAGCAAUAUUACGGGGG the same measures were -3.4 ± 0.31 and -1.99 ± 0.22.
As for AAGAAGCAAUAUUACGCGAU, the “self-splicing fitness (ln)” value was -3.59 ± 0.41 (30 °C) and -2 ± 0.42 (37 °C).
For GUAGAGCAAUAUUACGGUUU the same measures were -1.75 ± 0.11 and -0.8 ± 0.13.
In the same order, the values of AUGAAGCAAUAUUACGACUG are -0.375 ± 0.097 and -0.617 ± 0.11.
For AUCUAGCAAUAUUACGGUGU the same measures were -2.17 ± 0.076 and -0.462 ± 0.081.
